According to patent publication US20100330100A1:
Read-outs that look alike come from different tables or passages of the source.

Legend:
Test in all cases: whole cell ELISA on immobilized PA103 strain, 50 µg/well IgG
[1] = target: PA4710 protein on the cell surface of Pseudomonas aeruginosa PA103 strain (Pseudomonas aeruginosa)
[2] = target: PA4710 protein on the cell surface of Pseudomonas aeruginosa PA103 strain (Pseudomonas aeruginosa); remark: listed apart in the source
[3] = target: PA4710 protein on the cell surface of Pseudomonas aeruginosa PA103 strain (Pseudomonas aeruginosa); remark: listed apart in the source

negative control IgG fraction purified from control rat sera obtained by administering only adjuvant (antibody)
absorbance at 450 nm [1]: 0.28 absorbance
absorbance at 450 nm [2]: 0.244 absorbance
absorbance at 450 nm [3]: 0.092 absorbance
